Patent publication US20240376227A1 (published 2024)

B1: mouse anti-CK2α monoclonal antibody clone 10B2, mAb (10B2) (antibody, mouse IgG2b, V domains shown)
VH: QVQLQQSGAELVRPGASVTLSCKASGYTFTDYQMHWVKQTPVHGLEWIGVIDPGTGGTAYNQKFKGKAILTADKSSNTAYMELRSLTSEDSAVYYCTGFVWGTGSPVTVSS
VL: DIQMTQSPSSLSASLGERVSLTCRASQDIGNNLNWLQQEPDGTIKRLIYATSSLDSGVPKRFTGSRSGSDYSLTISSLESEDFVDYYCLQYAIFPYTFGGGTKLEIKR
notes: As printed they appear to include a leader and the first constant region residues
B2: mouse anti-CK2α monoclonal antibody clone 16C2, mAb (16C2) (antibody, mouse IgG2b, V domains shown)
VH: QVQLQQSGAELVRPGASVTLSCKASGYKFTDYQMHWVKQTPVHGLEWIGVLDPGTGGTAYNQKFRGKAILTADKSSSTAYMELRSLTSEDSAVYYCTGFVWGTGTTVTVSS
VL: DIQMTQSPSSLSASLGERVSLTCRASQDIGSSLNWLQQEPDGTIKRLIYATSSLDSGVPKRFSGSRSGSDYSLTISSLESEDFVDYYCLQYAIFPYTFGGGTKLEIKR
notes: as for B1
B3: mouse anti-CK2α monoclonal antibody clone 15C1, mAb (15C1) (antibody, mouse IgG2b, V domains shown)
VH: QVQLQQSGAELVRPGASVTLSCKASGYTFTDFQMHWVKQTPVHGLEWIGVIDPGTGGTAYNQKFKDKAILTADKSSNTAYMELRSLTSEDSAVYYCTGFVWGTGTTVTVSS
VL: DIQMTQSPSSLSASLGERVSLTCRASQDIGNNLNWLQQEPDGTIKRLIYATSSLDSGVPKRFTGSRSGSDYSLTISSLESEDFVDYYCLQYAIFPYTFGGGTKLEIKR
notes: as for B1

Tests used:
[1] = target: T1, recombinant human CK2α protein (human, UniProt P68400 1-391); assay: Western blotting on 0.05, 0.1 or 0.2 µg purified recombinant protein, antibody at 0.1 µg/mL
T1 construct: also called recombinant CK2α protein; Casein kinase 2 alpha 1
T1 sequence (P68400 whole entry): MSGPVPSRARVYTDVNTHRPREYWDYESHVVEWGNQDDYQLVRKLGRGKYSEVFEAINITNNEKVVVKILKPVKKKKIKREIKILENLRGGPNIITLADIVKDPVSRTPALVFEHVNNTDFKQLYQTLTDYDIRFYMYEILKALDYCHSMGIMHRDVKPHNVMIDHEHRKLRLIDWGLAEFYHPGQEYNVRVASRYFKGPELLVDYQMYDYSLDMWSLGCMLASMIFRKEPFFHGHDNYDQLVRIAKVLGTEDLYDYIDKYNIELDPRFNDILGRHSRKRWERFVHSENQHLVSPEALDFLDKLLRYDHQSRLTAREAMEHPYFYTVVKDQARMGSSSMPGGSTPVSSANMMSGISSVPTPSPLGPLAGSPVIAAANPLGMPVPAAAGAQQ
Method: Using mAb (6A3), mAb (10B2), mAb (15C1), mAb (16C2), mAb (19C2), and mAb (21B1) of the present invention, a purified product of recombinant CK2α protein was detected by Western blotting. The recombinant CK2α protein obtained by purifying the human-derived CK2α protein expressed by introducing the pGEX2T-CK2α gene in E. coli was used. The recombinant CK2α protein in an amount of 0.05 μg, 0.1 μg, or 0.2 μg was treated with SDS, electrophoresed, and was subjected to detection with six antibodies of the present invention at 0.1 μg/mL.

endogenous CK2α protein = target: T2, endogenous CK2α protein (UniProt P68400 1-391); assay: Western blotting after immunoprecipitation, MCF-7 and Flag-CK2α-expressing HEK293 cells
T2 construct: Native protein in cell lysates, chromatin fractions or fixed tissue sections of human origin; also called cellular endogenous CK2α protein; CK2α protein localized to the nucleolus
T2 sequence (P68400 whole entry): as above
Method: A lysate was prepared from a breast cancer cell line MCF-7 (JCRB cell bank, #JCRB0134) and Flag-CK2α protein-expressing HEK293 cells. The MCF-7 cell line or Flag-CK2α-protein-expressing HEK293 cells were cultured, and washed with PBS, and then collected from the plate. A soluble fraction was partially purified from the cell lysate in accordance with common methods, and the anti-CK2α antibody (1 μg of six antibodies of the present invention or the control antibody) was added. Then, mixing was performed mildly at 4° C. for two hours, and then, Protein G-agarose beads were added, and a CK2α immune complex was formed. Then, the immunoprecipitates obtained by centrifugation were treated with SDS, and then electrophoresed. In Western blotting, the antibody of the present invention or the control antibody was used at 0.1 μg/mL.
The Western blotting performed with the control antibody detected, in the MCF-7 cell line, a band of the endogenous CK2α and in addition, a nonspecific band equal to or stronger than the band, and also detected, in the Flag-CK2α protein-expressing HEK293 cells, bands of the endogenous CK2α and Flag-CK2α, and in addition, a nonspecific band equal to or stronger than the bands.

Binder	binding result [1]	binding result (endogenous CK2α protein)
B1	binds	binds
B2	binds	binds
B3	binds	binds
